Data taken from patent publication US20030073111.

B1: IKKα/CHUK (protein)
chain: MERPPGLRPGAGGPWEMRERLGTGGFGNVSLYQHRELDLKIAIKSCRLELSSKNRERWCHEIQIMKKLDHANVVKACDVPEELNFLINDVPLLAMEYCSGGDLRKLLNKPENCCGLKESQILSLLSDIGSGIRYLHENKIIHRDLKPENIVLQDVGGKTIHKIIDLGYAKDVDQGSLCTSFVGTLQYLAPELFENKPYTATVDYWSFGTMVFECIAGYRPFLHHLQPFTWHEKIKKKDPKCIFACEEMTGEVRFSSHLPQPNSLCSLIVEPMESWLQLMLNWDPQQRGGPIDLTLKQPRCFALMDHILNLKIVHILNMTSAKIISFLLPCDESLHSLQSRIERETGINTGSQELLSETGISLDPRKPASQCVLDGVRGCDSYMVYLFDKSKTVYEGPFASRSLSDCVNYIVQDSKIQLPIIQLRKVWAEAVHYVSGLKEDYSRLFQGQRAAMLSLLRYNANLTKMKNTLISASQQLKAKLEFFRKSIQLDLERYSEQMTYGISSEKMLKAWKEMEEKAIHYSEVGVIGYLEDQIMSLHTEIMELQKSPYGRRQGDLMESLEQRAIDLYKQLKHRPPDHLYSDSTEMVKIIVHTVQSQDRVLKELFGHLSKLLGCKQKIIDLLPKVEVALSNIKEADNTVMFMQGKRQKEIWHLLKIACTQSSARSLVGSSLEGTVTPPVSAWLPPTLADREHPLTCVVTPQDGETLAQMIEENLNCLGHLSTIIREANEDQSSSLMSLDWSWLAE
B2: IKKα-ΔCm (protein)
chain: MERPPGLRPGAGGPWEMRERLGTGGFGNVSLYQHRELDLKIAIKSCRLELSSKNRERWCHEIQIMKKLDHANVVKACDVPEELNFLINDVPLLAMEYCSGGDLRKLLNKPENCCGLKESQILSLLSDIGSGIRYLHENKIIHRDLKPENIVLQDVGGKTIHKIIDLGYAKDVDQGSLCTSFVGTLQYLAPELFENKPYTATVDYWSFGTMVFECIAGYRPFLHHLQPFTWHEKIKKKDPKCIFACEEMTGEVRFSSHLPQPNSLCSLIVEPMESWLQLMLNWDPQQRGGPIDLTLKQPRCFALMDHILNLKIVHILNMTSAKIISFLLPCDESLHSLQSRIERETGINTGSQELLSETGISLDPRKPASQCVLDGVRGCDSYMVYLFDKSKTVYEGPFASRSLSDCVNYIVQDSKIQLPIIQLRKVWAEAVHYVSGLKEDYSRLFQGQRAA
B3: IKKα-ΔLH (protein)
chain: MERPPGLRPGAGGPWEMRERLGTGGFGNVSLYQHRELDLKIAIKSCRLELSSKNRERWCHEIQIMKKLDHANVVKACDVPEELNFLINDVPLLAMEYCSGGDLRKLLNKPENCCGLKESQILSLLSDIGSGIRYLHENKIIHRDLKPENIVLQDVGGKTIHKIIDLGYAKDVDQGSLCTSFVGTLQYLAPELFENKPYTATVDYWSFGTMVFECIAGYRPFLHHLQPFTWHEKIKKKDPKCIFACEEMTGEVRFSSHLPQPNSLCSLIVEPMESWLQLMLNWDPQQRGGPIDLTLKQPRCFALMDHILNLKIVHILNMTSAKIISFLLPCDESLHSLQSRIERETGINTGSQELLSETGISLDPRKPASQCVLDGVRGCDSYMVYLFDKSKTVYEGPFASRSLSDCVNYIVQDSKIQLPIIQLRKVWAEAVHYVSGLKEDYSRLFQGQRAAIFRKNVKSMERNGRKGHSLF

biological target: GST-IκBα (1-62)

Protein	immunoprecipitatable kinase activity towards GST-IκBα(1-62)
B1	TNF-α stimulation of HEK293 cells transfected with each IKKα/CHUK isoform resulted in an increase in immunoprecipitatable kinase activity towards GST-IκBα(1-62)
B2	TNF-α stimulation of HEK293 cells transfected with each IKKα/CHUK isoform resulted in an increase in immunoprecipitatable kinase activity towards GST-IκBα(1-62)
B3	TNF-α stimulation of HEK293 cells transfected with each IKKα/CHUK isoform resulted in an increase in immunoprecipitatable kinase activity towards GST-IκBα(1-62)
